Data taken from paper PMC546145.
Read-outs that look alike come from different tables or passages of the source.

Legend:
Test in all cases: competition EMSA
[1] = target: T1, Ku heterodimer, Ku70 subunit;Ku heterodimer, Ku80 subunit (human;human, UniProt P12956;P13010 1-609;1-732, |)
[2] = target: T1, Ku heterodimer, Ku70 subunit;Ku …; remark: listed apart in the source
[3] = target: T1, Ku heterodimer, Ku70 subunit;Ku …; remark: listed apart in the source

T1 sequence (P12956 whole entry, chain 1 of 2): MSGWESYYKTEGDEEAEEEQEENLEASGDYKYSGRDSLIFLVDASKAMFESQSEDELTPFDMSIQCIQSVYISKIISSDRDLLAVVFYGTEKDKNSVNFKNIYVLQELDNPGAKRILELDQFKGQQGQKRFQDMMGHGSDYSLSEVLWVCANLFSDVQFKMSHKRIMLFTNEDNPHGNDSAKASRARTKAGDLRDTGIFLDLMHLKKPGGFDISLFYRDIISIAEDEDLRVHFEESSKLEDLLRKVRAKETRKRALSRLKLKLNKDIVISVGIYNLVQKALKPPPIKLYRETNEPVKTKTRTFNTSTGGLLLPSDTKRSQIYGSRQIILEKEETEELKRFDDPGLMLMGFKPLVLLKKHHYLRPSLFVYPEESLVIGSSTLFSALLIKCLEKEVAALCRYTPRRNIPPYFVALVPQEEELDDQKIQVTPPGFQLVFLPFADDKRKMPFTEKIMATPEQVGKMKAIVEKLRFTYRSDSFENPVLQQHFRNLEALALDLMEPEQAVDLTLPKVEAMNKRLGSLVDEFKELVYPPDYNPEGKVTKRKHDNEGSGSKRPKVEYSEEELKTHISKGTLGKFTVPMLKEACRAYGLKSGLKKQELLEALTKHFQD
T1 sequence (P13010 whole entry, chain 2 of 2): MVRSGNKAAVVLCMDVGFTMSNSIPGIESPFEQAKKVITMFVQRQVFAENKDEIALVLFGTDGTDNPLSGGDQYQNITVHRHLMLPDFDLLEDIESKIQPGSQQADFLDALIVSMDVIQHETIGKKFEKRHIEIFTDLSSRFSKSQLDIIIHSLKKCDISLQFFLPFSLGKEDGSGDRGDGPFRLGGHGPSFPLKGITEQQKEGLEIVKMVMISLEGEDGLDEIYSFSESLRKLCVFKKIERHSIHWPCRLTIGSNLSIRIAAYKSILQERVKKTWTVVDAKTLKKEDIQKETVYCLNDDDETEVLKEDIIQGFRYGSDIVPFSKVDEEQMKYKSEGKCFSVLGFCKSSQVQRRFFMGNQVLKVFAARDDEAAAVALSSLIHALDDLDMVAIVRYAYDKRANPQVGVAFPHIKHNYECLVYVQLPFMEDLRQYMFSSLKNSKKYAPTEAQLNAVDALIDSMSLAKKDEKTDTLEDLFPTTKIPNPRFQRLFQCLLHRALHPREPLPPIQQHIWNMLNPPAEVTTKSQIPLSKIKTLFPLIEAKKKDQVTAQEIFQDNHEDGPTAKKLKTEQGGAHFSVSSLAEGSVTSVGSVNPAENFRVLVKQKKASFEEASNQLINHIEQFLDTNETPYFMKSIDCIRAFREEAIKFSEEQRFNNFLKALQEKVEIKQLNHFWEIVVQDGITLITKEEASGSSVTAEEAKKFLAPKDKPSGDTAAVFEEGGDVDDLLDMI

B1: MP/3B + Pt (dsDNA)
DNA 1: CCCCTCTCCTTCTTGGCTTCTTCCTTCCCC
DNA 2: GGGGAAGGAAGAAGCCAAGAAGGAGAGGGG
modifications: cisplatin adduct at central GG of strand 1 (15-16); 3' biotin on strand 2
- binding result [1]: binds

B2: MP/5B + Pt (dsDNA)
DNA 1: B1 DNA 1
DNA 2: B1 DNA 2
modifications: cisplatin adduct at central GG of strand 1 (15-16); 5' biotin on strand 2
- binding result [2]: binds

B3: 5P/5B undamaged (dsDNA)
DNA 1: CCCCTGGCTTTCTTTTCCTCTTCCTTCCCC
DNA 2: GGGGAAGGAAGAGGAAAAGAAAGCCAGGGG
modifications: 5' biotin on strand 2
- binding result [3]: binds
